We go through 4 compounds from patent US20090275105A1, “PROCESS FOR THE PRODUCTION OF BROMELAIN BY MEANS OF SUBSTANCES THAT INDUCE PROTEINS IN PINEAPPLE PLANTS” (priority 2006, published 2009).

Data set [1] in a line: Comparison of the specific activity of bromelain obtained from different methods. It is filed as biochemical, Ananas comosus. To be noted: 30 mg/ml protein sample; inducers: 15 days from induction. The procedure: The plantlets grown in vitro in different culture mediums indicated in this invention were taken and rinsed in running water to remove the Induction SS medium. 330 g of plants were weighed, placed in an extractor to be ground and 200 ml of juice was obtained (first extraction) that was stored at a temperature of 4° C. 670 ml of extraction buffer (monobasic potassium phosphate and dibasic potassium phosphate) is added to the pulp obtained from the extraction at a pH of 6.1 and a concentration of 0.05M; this is allowed to repose for 20 minutes in order to afterwards collect the enzyme and pass it through an extractor and thus obtain the second juice. The following step is to mix and homogenize the juice from the first extraction with the second extraction for 1 minute at 2000 rpm and to then centrifuge at 10000 rpm for 20 min. at 4° C., to afterwards recover the supernatant with a volume of approximately 800 ml which is frozen at −80° C. and lyophilized (10% of solids) for its preservation. The extraction procedure is applied for all the treatments of which the amount of protein present is determined (Bradford) expressing the protein per ml of extract in mg. A standard curve is used for the protein tests. The standard used was bovine serum albumin at 0.20-1.0 mg/ml. Based on the results, the following specific activities were obtained compared with imported commercial bromelain and bromelain induced from in vitro plants.

For data set [2] the following is noted: cited from earlier work.
For data set [3] the following is noted: fractioning with ammonium sulfate; cited from earlier work.
For data set [4] the following is noted: bromelain obtained from stems; cited from earlier work.
The test system of data set [5] is pineapple plants (Ananas comosus). In words: Specific enzyme activity of raw extract from pineapple plantlets induced in vitro (Dapeau method). It is filed as in vivo. The following applies: sacarose 30-90 g/L as inducer. The protocol:
In order to perform the evaluation of the inducers, a factor design was carried out of 3×3×3 with three inducers at three different concentrations and three monitoring times (Chart 4), for each treatment The evaluations are carried out using the inducers separately or in combination giving a total of […]. […] The induction was begun with the selection of the sprouts previously established in vitro with a size of 2 cm and an average of 3 leaves and weighing 120 mg. […] Once the inducers are added to the modified SS, it is sterilized at 121° C., at a pressure of 1.2 kg/cm^2 for 20 minutes. In the treatments that contain salicylic acid, the modified SS medium is first sterilized and later the acid is added, which was sterilized through filtration, under aseptic conditions in a laminar flow hood. Here it is advisable to add the acid to the medium before it is cooled to achieve the homogenization of the inducer with the medium before it is solidified. The sprouts are planted under aseptic conditions in 460 ml flasks that contain 30 ml of the Induction SS, said flasks are closed and sealed with clear tape in order to avoid any filtering of air and with the air, contamination of same. The treatments are moved to a growth room under controlled conditions at 27±2° C. and a photoperiod of 16 hr/light and 8 hr/darkness for a period of 7, 15, 30 and 45 days. […]

In the case of `O=C(O)c1ccccc1O` [Salicylic acid], in data set [1], the “Specific activity (U/mg^−1 protein)” value amounted to 3.17 U/mg^−1 protein.
On the same count and under the same terms, the same measure for `[Cl-].[Na+]` [NaCl, sodium chloride]: 4.98 U/mg^−1 protein.
Take Bromelain: the “Stability in solutions of 25% methanol (v/v)” value in data set [2] (25° C. for 20 min) was “stable”. For the same compound, the “loss of activity when the enzymatic solution is heated” value in data set [2] (55° C. for 20 min at pH 6) was 50%. Further, the “Optimal pH” value in data set [2] (Inagami and Murachi, 1963) was “approximately 7”. Moreover, in data set [2] (Murachi et al., 1964), the “loss in activity caused by lyophilization” value is recorded as 27%. Further, the proteolytic activity in data set [3] was 1.64 U/mg^−1. Moreover, the “Isoelectric Point p1” value in data set [4] is recorded as 9.55.
Take `OC[C@H]1O[C@@](CO)(O[C@H]2O[C@H](CO)[C@@H](O)[C@H](O)[C@H]2O)[C@@H](O)[C@@H]1O` [Sacarose]: in data set [5], the “specific activity in induction tests, comparison of inducers” value is “greater specific activity”. In data set [1], the “Specific activity (U/mg^−1 protein)” value is 635 U/mg^−1 protein.
